Where “and” joins values, the source holds several entries; their conditions need not be identical. Identical values can stand only once.
Tests used:
[1] = target: the molecule itself; test: nonreducing capillary electrophoresis immunoassay (Simple Jess) + other: nonreducing SDS-PAGE with immunoblot; root lysates of p35S:APT1-GFP/apt1 plants after 4 mM H2O2 for 15 min to 6 h (also 1 dpi with F. oxysporum); DTT-free buffers, samples not heated, anti-GFP
[2] = target: the molecule itself; test: not stated; in vivo in M. truncatula under drought stress (Supplementary Fig. 2a)
[3] = target: the molecule itself; test: nonreducing SDS-PAGE with immunoblot; 6 × His-APT1 proteins after Ni purification from E. coli, no reducing agent; Tris-Tricine SDS-PAGE system

B1: APT1-GFP fusion protein (p35S:APT1-GFP) in M. truncatula apt1 roots (enzyme)
chain: not shown
notes: acyl-protein thioesterase 1 (APT1) of Medicago truncatula, cDNA from ecotype A17; Detected with anti-GFP; source: transgenic M. truncatula apt1 mutant roots (p35S:APT1-GFP), in lysate
With B1 the “stoichiometry N” value [1] was 4.

B2: APT1 in M. truncatula under drought stress (enzyme)
chain: not shown
notes: acyl-protein thioesterase 1 (APT1) of Medicago truncatula; May be the same APT1-GFP as m9 (surmised); source: in vivo in M. truncatula
For B2, the “stoichiometry N” value [2] was 4.

B3: 6 × His-APT1 fusion protein (acyl-protein thioesterase 1, Medicago truncatula) (enzyme)
chain: not shown
notes: acyl-protein thioesterase 1 (APT1, MtAPT1) of Medicago truncatula; cDNA amplified from ecotype A17; cysteines at C20, C22 and C37; The vector pET-30a(+) may add further vector-encoded residues (surmised); also called MtAPT1; pET-30a(+)-His-APT1
For B3, the “stoichiometry N” value [3] was 2 and 4.

Source: publication PMC10192129, “The thioesterase APT1 is a bidirectional-adjustment redox sensor” (Nature Communications, 2023)
